In PMC1876262:

Molecular target: Bovine brain tubulin (bovine) (UniProt Q6B856)
UniProt Q6B856, sequence (Q6B856 whole entry, looked up): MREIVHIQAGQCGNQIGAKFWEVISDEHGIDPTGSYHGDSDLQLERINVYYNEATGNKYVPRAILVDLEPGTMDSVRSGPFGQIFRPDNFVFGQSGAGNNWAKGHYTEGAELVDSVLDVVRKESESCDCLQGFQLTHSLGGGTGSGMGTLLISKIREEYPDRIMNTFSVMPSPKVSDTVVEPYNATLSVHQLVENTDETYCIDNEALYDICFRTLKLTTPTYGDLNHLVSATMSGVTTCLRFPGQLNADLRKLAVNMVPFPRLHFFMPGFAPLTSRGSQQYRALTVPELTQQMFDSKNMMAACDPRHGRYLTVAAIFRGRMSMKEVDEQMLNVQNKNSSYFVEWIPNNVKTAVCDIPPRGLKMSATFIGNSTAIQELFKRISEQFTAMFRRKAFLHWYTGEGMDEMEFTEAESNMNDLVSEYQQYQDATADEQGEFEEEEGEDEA

- decrease of thermal aggregation of tubulin: OD340 at 52°C for 60 min (Figure 4): 65%
B1: wt human αB crystallin (natural protein)
chain: MDIAIHHPWIRRPFFPFHSPSRLFDQFFGEHLLESDLFPTSTSLSPFYLRPPSFLRAPSWFDTGLSEMRLEKDRFSVNLDVKHFSPEELKVKVLGDVIEVHGKHEERQDEHGFISREFHRKYRIPADVDPLTITSSLSSDGVLTVNGPRKQVSGPERTIPITREEKPAVTAAPKK
